The assay concerns the target Pseudomonas aeruginosa type I-F CRISPR-Cas surveillance complex (Csy complex) (P. aeruginosa) (UniProt Q02MM1). Description: SEC; competition: purified Csy complex pre-incubated 1 h with a 10-fold molar excess of FLAG-tagged AcrF1 (mutant or wild type), then an equal amount of HA-tagged wild-type AcrF1 added for 1 h; size exclusion chromatography; peak fractions by SDS-PAGE, silver staining and Western blot.

With “FLAG-tagged AcrF1 E31A (natural protein)”, the percent exchanged with HA-tagged wild-type AcrF1 at 1 h is 50%. In the case of “FLAG-tagged AcrF1 Y20A (natural protein)” it was 50%.
